Key:
[1] = molecular target: T1, mouse CD20 (mouse, UniProt P19437 1-291); test: flow cytometry on MC38/mCD20 cells
T1 construct: whole, on cells; also called mCD20; murine CD20
T1 sequence (looked up): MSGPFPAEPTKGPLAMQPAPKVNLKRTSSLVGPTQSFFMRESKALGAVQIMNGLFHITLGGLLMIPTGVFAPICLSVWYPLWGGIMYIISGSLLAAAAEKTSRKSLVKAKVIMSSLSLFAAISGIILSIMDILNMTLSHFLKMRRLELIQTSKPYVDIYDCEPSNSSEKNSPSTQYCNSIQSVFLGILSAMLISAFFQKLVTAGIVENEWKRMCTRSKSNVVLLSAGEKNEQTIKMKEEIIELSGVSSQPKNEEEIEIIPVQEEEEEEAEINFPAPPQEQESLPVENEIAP
Experimental: (§1) Cells (HEK 293, MC38 over-expressing mCD20 or Jurkat over-expressing mPD1) were resuspended in FACS wash (PBS with 1% FBS) at 1×10⁸ cells/mL. The staining was performed in 1×10⁵ cells per well. The antibodies were diluted with a ratio of 1:5 from a starting concentration of 1.3×10⁻⁷ M. The diluted antibodies were then added into the wells containing cells. Cells were stained for 30 min at 2-8° C. and washed twice with FACS wash buffer. APC-conjugated goat anti-human IgG (Jackson Immuno Research, 109-607-003, 1:400) was added to stain the cells for 30 min at 2-8° C. Following washing, cells were fixed in 2% paraformaldehyde for 30 min at 2-8° C. After two washes, stained cells were analyzed using BD LSRFortessa™ FACS instrument. The results were analyzed by FlowJo. FSC/SSC gates were used to select mononuclear cells.

[2] = molecular target: T2, mouse PD1 (mouse, UniProt Q02242 25-288); test: cell-based or functional assay
T2 sequence (looked up): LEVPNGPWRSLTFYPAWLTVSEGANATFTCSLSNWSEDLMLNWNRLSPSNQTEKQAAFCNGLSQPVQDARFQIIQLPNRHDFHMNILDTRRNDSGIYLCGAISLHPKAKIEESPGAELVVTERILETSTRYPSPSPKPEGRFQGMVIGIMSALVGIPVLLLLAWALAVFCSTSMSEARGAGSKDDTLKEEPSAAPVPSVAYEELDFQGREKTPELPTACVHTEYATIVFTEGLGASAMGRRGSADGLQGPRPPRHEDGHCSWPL

[3] = molecular target: T2, mouse PD1; test: flow cytometry on Jurkat/mPD1 cells
Experimental: as §1

B1: 1 + 2 m20_mPL_1 (bispecific antibody, human IgG1, kappa)
heavy: QVQLQQPGAELVRPGTSVKLSCKASGYTFTSYWMHWIKQRPGQGLEWIGVIDPSDNYTKYNQKFKGKATLTVDTSSSTAYMQLSSLTSEDSAVYFCAREGYYGSSPWFAYWGQGTLVTVSSASTKGPSVFPLAPSSKSTSGGTAALGCLVKDYFPEPVTVSWNSGALTSGVHTFPAVLQSSGLYSLSSVVTVPSSSLGTQTYICNVNHKPSNTKVDKKVEPKSCDKTHTCPPCPAPEAEGAPSVFLFPPKPKDTLMISRTPEVTCVVVDVSHEDPEVKFNWYVDGVEVHNAKTKPREEQYNSTYRVVSVLTVLHQDWLNGKEYKCKVSNKALPSSIEKTISKAKGQPREPQVCTLPPSRDELTKNQVSLSCAVKGFYPSDIAVEWESNGQPENNYKTTPPVLDSDGSFFLVSKLTVDKSRWQQGNVFSCSVMHEALHNRFTQKSLSLSPGK
light: QIVMSQSPAILSASPGEKVTMTCRARSSVSYIHWYQQKPGSSPKPWIYATSNLASGVPGRFSGSGSGTSYSLTITRVEAEDAATYYCQQWSSKPPTFGGGTKLEIKRTVAAPSVFIFPPSDEQLKSGTASVVCLLNNFYPREAKVQWKVDNALQSGNSQESVTEQDSKDSTYSLSSTLTLSKADYEKHKVYACEVTHQGLSSPVTKSFNRGEC
chain: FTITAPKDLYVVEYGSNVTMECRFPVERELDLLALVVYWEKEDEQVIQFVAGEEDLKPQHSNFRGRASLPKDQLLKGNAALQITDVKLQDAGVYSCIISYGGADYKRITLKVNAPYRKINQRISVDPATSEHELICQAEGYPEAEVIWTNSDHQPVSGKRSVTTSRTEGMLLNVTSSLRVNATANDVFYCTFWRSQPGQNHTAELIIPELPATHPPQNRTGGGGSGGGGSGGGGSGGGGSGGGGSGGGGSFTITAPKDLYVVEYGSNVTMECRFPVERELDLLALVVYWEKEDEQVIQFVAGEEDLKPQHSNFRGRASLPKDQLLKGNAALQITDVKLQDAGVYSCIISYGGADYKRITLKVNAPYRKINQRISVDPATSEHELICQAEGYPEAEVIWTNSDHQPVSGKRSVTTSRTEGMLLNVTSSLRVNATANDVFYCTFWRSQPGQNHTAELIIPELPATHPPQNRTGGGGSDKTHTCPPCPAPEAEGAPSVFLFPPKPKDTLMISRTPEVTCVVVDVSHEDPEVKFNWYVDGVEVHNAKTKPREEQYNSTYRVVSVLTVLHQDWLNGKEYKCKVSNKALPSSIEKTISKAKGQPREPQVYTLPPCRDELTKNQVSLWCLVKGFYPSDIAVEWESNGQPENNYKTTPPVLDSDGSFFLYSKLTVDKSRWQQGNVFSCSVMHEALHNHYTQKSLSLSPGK
- Max MFI [1]: 20300 MFI
- Max % inhibition, AP1-luciferase bioassay, 2.5 nM CD3 bsAb [2]: 11%
- EC50 [3]: 22.4 nM
- Max MFI [3]: 16700 MFI

B2: 2 + 2 m20_mPL_3 (bispecific antibody, human IgG1, kappa)
heavy: QVQLQQPGAELVRPGTSVKLSCKASGYTFTSYWMHWIKQRPGQGLEWIGVIDPSDNYTKYNQKFKGKATLTVDTSSSTAYMQLSSLTSEDSAVYFCAREGYYGSSPWFAYWGQGTLVTVSSASTKGPSVFPLAPSSKSTSGGTAALGCLVKDYFPEPVTVSWNSGALTSGVHTFPAVLQSSGLYSLSSVVTVPSSSLGTQTYICNVNHKPSNTKVDKKVEPKSCDKTHTCPPCPAPEAEGAPSVFLFPPKPKDTLMISRTPEVTCVVVDVSHEDPEVKFNWYVDGVEVHNAKTKPREEQYNSTYRVVSVLTVLHQDWLNGKEYKCKVSNKALPSSIEKTISKAKGQPREPQVCTLPPSRDELTKNQVSLSCAVKGFYPSDIAVEWESNGQPENNYKTTPPVLDSDGSFFLVSKLTVDKSRWQQGNVFSCSVMHEALHNRFTQKSLSLSPGKGGGGSGGGGSGGGGSQVQLQQPGAELVRPGTSVKLSCKASGYTFTSYWMHWIKQRPGQGLEWIGVIDPSDNYTKYNQKFKGKATLTVDTSSSTAYMQLSSLTSEDSAVYFCAREGYYGSSPWFAYWGQGTLVTVSSASTKGPSVFPLAPSSKSTSGGTAALGCLVKDYFPEPVTVSWNSGALTSGVHTFPAVLQSSGLYSLSSVVTVPSSSLGTQTYICNVNHKPSNTKVDKKVEPKSCD
chain: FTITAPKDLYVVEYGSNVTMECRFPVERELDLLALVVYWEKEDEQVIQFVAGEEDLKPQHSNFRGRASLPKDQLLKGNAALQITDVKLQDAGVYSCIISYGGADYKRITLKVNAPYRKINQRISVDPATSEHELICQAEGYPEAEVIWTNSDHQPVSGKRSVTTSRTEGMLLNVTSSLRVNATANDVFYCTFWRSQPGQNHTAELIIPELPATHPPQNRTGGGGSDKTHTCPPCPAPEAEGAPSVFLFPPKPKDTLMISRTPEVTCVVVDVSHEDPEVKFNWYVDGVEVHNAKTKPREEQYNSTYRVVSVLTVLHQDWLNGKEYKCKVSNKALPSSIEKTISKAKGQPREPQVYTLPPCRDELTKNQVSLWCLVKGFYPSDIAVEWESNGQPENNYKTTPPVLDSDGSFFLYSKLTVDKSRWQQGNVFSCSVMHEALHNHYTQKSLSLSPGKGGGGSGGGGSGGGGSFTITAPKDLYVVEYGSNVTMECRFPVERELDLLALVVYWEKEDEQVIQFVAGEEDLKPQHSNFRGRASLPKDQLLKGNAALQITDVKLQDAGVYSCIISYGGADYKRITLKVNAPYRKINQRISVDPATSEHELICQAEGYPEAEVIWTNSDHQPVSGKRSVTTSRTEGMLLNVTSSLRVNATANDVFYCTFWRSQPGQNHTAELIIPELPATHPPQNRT
light: B1 light
- EC50 [1]: 8.42 nM
- Max MFI [1]: 35300 MFI
- IC50 (M), AP1-luciferase bioassay, 2.5 nM CD3 bsAb [2]: 6.5e-11 M
- Max % inhibition, AP1-luciferase bioassay, 2.5 nM CD3 bsAb [2]: 33%
- EC50 [3]: 6.31 nM
- Max MFI [3]: 6980 MFI

Reference: patent US20240425609A1 (Regeneron, published 2024)
